Test results taken from PMC10648788, “Ahf-Caltide, a Novel Polypeptide Derived from Calpastatin, Protects against Oxidative Stress Injury by Stabilizing the Expression of CaV1.2 Calcium Channel” (International Journal of Molecular Sciences, 2023).

T1: GST-IQ, IQ motif of the CaV1.2 channel alpha1 subunit (UniProt O35505 1648-1668)
T1 construct: CaV1.2 calcium channel alpha1 subunit, IQ motif, a.a; 1648-1668, GenBank AB016287; also called IQ domain; source: E. coli BL21, purified (Glutathione Sepharose 4B)
T1 chain (looked up): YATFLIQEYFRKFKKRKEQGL

B1: Calpastatin (CAST) domain L (domain or fragment, UniProt P20810 3-148, looked up)
chain: PTETKAIPVSQQMEGPHLPNKKKHKKQAVKTEPEKKSQSTKLSVVHEKKSQEGKPKEHTEPKSLPKQASDTGSNDAHNKKAVSRSAEQQPSEKSTEPKTKPQDMISAGGESVAGITAISGKPGDKKKEKKSLTPAVPVESKPDKPS
notes: calpastatin (CAST) domain L (CSL), a.a; In the H2O2 experiments CSL was incubated with H2O2 present; The chemical change is not defined; also called CSL; source: E. coli BL21, purified (Glutathione Sepharose 4B), GST removed using PreScission protease
B2: GST-NT, N terminus of the CaV1.2 channel alpha1 subunit (domain or fragment, UniProt O35505 6-140, looked up)
chain: QPTTPAYRPLPSHLSADTEVRGRGTLVHEAQLNCFYISPGGSNYGSPRPAHANINANAAAGLAPEHIPTPGAALSWQAAIDAGRQAKLMGSAGNTTISTVSSTQRKRQQYGKPKKQSGTTATRPPRALLCLTLKN
notes: CaV1.2 calcium channel alpha1 subunit, N terminus (NT), a.a; 6-140, GenBank AB016287; source: E. coli BL21, purified (Glutathione Sepharose 4B)

Legend:
Conditions in all cases: both partners purified
[1] = molecular target: T1, GST-IQ, IQ motif of the CaV1.2 channel …; assay: pull-down; GST fusion (15 ug) with 10 uM CSL in 400 uL Tris buffer, 4 C, 4 h; [Ca2+] 10 uM, H2O2 10^-2 M; Coomassie-stained gel quantified
[2] = molecular target: T2, GST-PreIQ, PreIQ motif of the CaV1.2 channel alpha1 subunit (UniProt O35505 1599-1639); assay: as above
T2 construct: CaV1.2 calcium channel alpha1 subunit, PreIQ motif, a.a; 1599-1639, GenBank AB016287; source: E. coli BL21, purified (Glutathione Sepharose 4B)

[3] = molecular target: T3, GST-CT1, proximal portion of the C terminus of the CaV1.2 channel alpha1 subunit (UniProt O35505 1509-1789); assay: as above
T3 construct: CaV1.2 calcium channel alpha1 subunit, CT1 (proximal portion of CT), a.a; 1509-1789, GenBank AB016287; source: E. coli BL21, purified (Glutathione Sepharose 4B)

[4] = molecular target: B2; assay: as above
[5] = molecular target: T1, GST-IQ, IQ motif of the CaV1.2 channel …; assay: pull-down; GST fusion (15 ug) with 10 uM CSL in 400 uL Tris buffer, 4 C, 4 h; [Ca2+] 10 uM, H2O2 10^-1 M; Coomassie-stained gel quantified
[6] = molecular target: T2, GST-PreIQ, PreIQ motif of the CaV1.2 …; assay: as above
[7] = molecular target: T3, GST-CT1, proximal portion of the C …; assay: as above
[8] = molecular target: B2; assay: as above
[9] = molecular target: T1, GST-IQ, IQ motif of the CaV1.2 channel …; assay: pull-down; GST fusion (15 ug) with 10 uM CSL in 400 uL Tris buffer, 4 C, 4 h; [Ca2+] 10 uM, H2O2 0 M; Coomassie-stained gel quantified
[10] = molecular target: T2, GST-PreIQ, PreIQ motif of the CaV1.2 …; assay: as above
[11] = molecular target: T3, GST-CT1, proximal portion of the C …; assay: as above
[12] = molecular target: B2; assay: as above
[13] = molecular target: B1; assay: pull-down; GST-NT (15 ug) incubated with CSL 0-30 uM for 4 h in 400 uL Tris buffer, [Ca2+] 1 mM; Coomassie-stained gel quantified; one-site fit, apparent Kd
[14] = molecular target: B1; assay: pull-down; GST-NT (15 ug) incubated with CSL 0-30 uM for 4 h in 400 uL Tris buffer, [Ca2+] 25 nM; Coomassie-stained gel quantified; one-site fit, apparent Kd
[15] = molecular target: B1; assay: pull-down; GST-NT (15 ug) incubated with CSL 0-30 uM for 4 h in 400 uL Tris buffer, [Ca2+] 10 uM; Coomassie-stained gel quantified; one-site fit, apparent Kd

T2 sequence (O35505 1599-1639): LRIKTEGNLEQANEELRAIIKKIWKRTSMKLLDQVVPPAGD
T3 sequence (O35505 1509-1789): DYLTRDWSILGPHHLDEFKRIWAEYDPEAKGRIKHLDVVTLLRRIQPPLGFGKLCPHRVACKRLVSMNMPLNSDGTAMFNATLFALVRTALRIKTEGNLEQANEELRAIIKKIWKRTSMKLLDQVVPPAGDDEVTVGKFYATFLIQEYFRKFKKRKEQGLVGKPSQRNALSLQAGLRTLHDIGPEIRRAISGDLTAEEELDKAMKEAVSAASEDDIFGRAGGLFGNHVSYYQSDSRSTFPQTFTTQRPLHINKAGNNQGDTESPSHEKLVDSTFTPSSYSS

Kd [13] | Kd [14] | Kd [15] | Binder | binding density of CSL [1] | binding density of CSL [2] | binding density of CSL [3] | binding density of CSL [4] | binding density of CSL [5] | binding density of CSL [6] | binding density of CSL [7] | binding density of CSL [8] | binding density of CSL [9] | binding density of CSL [10] | binding density of CSL [11] | binding density of CSL [12]
– | – | – | B1 | 0.34 | 0.16 | 1.12 | 0.46 | 0.26 | 0.16 | 0.68 | 0.46 | 0.15 | 0.16 | 0.52 | 0.46
1320 nM | 1110 nM | 1480 nM | B2 | – | – | – | – | – | – | – | – | – | – | – | –
